Assay results published in PMC4803204, “A Novel Glutamyl (Aspartyl)-Specific Aminopeptidase A from Lactobacillus delbrueckii with Promising Properties for Application” (PLoS ONE, 2016).

Tests used:
Lc-PepA [1] = target: T1, Lc-PepA (Lactococcus lactis, UniProt Q9CIH3); assay: product inhibition, p-nitroaniline release at […] nm; format: biochemical
T1 construct: full length (355 aa, 1068 bp gene), C-terminal His6-tag kept, pET20b(+), E. coli BL21(DE3), Ni-NTA purified
T1 sequence (Q9CIH3 1-355): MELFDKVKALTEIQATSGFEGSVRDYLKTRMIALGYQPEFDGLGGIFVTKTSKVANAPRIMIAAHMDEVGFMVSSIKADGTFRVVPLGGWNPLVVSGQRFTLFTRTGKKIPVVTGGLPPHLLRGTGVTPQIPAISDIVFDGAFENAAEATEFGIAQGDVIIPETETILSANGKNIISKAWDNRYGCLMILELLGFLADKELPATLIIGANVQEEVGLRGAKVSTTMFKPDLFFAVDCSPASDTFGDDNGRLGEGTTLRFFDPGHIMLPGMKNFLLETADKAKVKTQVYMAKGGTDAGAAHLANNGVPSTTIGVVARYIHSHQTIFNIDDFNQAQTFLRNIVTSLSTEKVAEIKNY

Lc-PepA [2] = target: T1, Lc-PepA; assay: p-nitroaniline release at […] nm, Michaelis-Menten nonlinear fit; format: biochemical; settings: substrate inhibition constant, apparent; 50 mM Na/K-phosphate pH 8.0, 65 °C, 0.3125 mM CoCl2
Lb-PepA = target: T2, Lb-PepA (Lactobacillus delbrueckii, UniProt F0HXE4); assay: as above; format: biochemical; settings: substrate inhibition constant, apparent; 50 mM Na/K-phosphate pH 6.0, 60 °C, 0.625 mM CoCl2
T2 construct: full length (361 aa, 1086 bp gene), C-terminal His6-tag kept, pET20b(+), E. coli BL21(DE3), Ni-NTA purified
T2 sequence (F0HXE4 1-361): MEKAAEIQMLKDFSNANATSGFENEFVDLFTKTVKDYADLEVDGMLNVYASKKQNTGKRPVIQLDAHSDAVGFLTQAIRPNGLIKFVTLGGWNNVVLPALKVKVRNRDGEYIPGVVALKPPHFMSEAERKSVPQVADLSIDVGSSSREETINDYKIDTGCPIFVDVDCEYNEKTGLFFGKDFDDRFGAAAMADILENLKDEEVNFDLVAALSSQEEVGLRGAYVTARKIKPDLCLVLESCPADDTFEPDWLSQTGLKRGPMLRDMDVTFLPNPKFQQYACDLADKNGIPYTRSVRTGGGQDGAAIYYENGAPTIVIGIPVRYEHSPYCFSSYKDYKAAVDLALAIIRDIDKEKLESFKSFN

[3] = target: Glutamyl (aspartyl)-specific aminopeptidase A (PepA) from Lactococcus lactis ssp. lactis DSM 20481 (Lactococcus lactis ssp. lactis DSM 20481) (UniProt Q48677); assay: SEC; Superdex 200 10/300 GL, 30 uL at 1 mg/mL, 0.75 mL/min, 10 mM Na/K-phosphate pH 8.0 with 150 mM NaCl; native mass against calibration proteins, divided by the monomer's mass
Lc-PepA [4] = target: T1, Lc-PepA; assay: p-nitroaniline release at […] nm, Michaelis-Menten nonlinear fit; format: biochemical; settings: substrate inhibition constant, apparent; 50 mM Na/K-phosphate pH 8.0, 65 °C, 0.3125 mM CoCl2; remark: listed apart in the source
[5] = target: Glutamyl (aspartyl)-specific aminopeptidase A (PepA) from Lactobacillus delbrueckii ssp. lactis DSM 20072 (Lactobacillus delbrueckii ssp. lactis DSM 20072); assay: SEC; Superdex 200 10/300 GL, 30 uL at 1 mg/mL, 0.75 mL/min, 10 mM Na/K-phosphate pH 6.0 with 150 mM NaCl; native mass against calibration proteins, divided by the monomer's mass
purified protein [6] = substrate: N[C@@H](CCC(=O)O)C(=O)Nc1ccc([N+](=O)[O-])cc1; assay: purified protein; format: biochemical, Lactococcus lactis; settings: apparent, 50 mM Na/K-phosphate pH 8.0, 65 °C, 0.3125 mM CoCl2, about 5% DMSO, fit with substrate inhibition
purified protein [7] = substrate: N[C@@H](CC(=O)O)C(=O)Nc1ccc([N+](=O)[O-])cc1; assay: purified protein; format: biochemical, Lactococcus lactis; settings: apparent, 50 mM Na/K-phosphate pH 8.0, 65 °C, 0.3125 mM CoCl2, about 5% DMSO, fit with substrate inhibition
purified protein [8] = substrate: N[C@@H](CCC(=O)O)C(=O)Nc1ccc([N+](=O)[O-])cc1; assay: purified protein; format: biochemical, Lactobacillus delbrueckii; settings: apparent, 50 mM Na/K-phosphate pH 6.0, 60 °C, 0.625 mM CoCl2, about 5% DMSO, substrate tested only up to 7.3 mM (solubility)
purified protein [9] = substrate: N[C@@H](CC(=O)O)C(=O)Nc1ccc([N+](=O)[O-])cc1; assay: purified protein; format: biochemical, Lactobacillus delbrueckii; settings: apparent, 50 mM Na/K-phosphate pH 6.0, 60 °C, 0.625 mM CoCl2, about 5% DMSO, fit with substrate inhibition

Question: How did the activity at 10000 µM (Lc-PepA [1]) turn out when N[C@@H](CC(=O)O)C(=O)O [L-Asp] was run?
Answer: The activity at 10000 µM was 78.2%.

Question: What does the source list for N[C@@H](CC(=O)O)C(=O)Nc1ccc([N+](=O)[O-])cc1 [H-Asp-pNA]?
Answer: H-Asp-pNA / KIS [mM] (Lc-PepA [2]): 41.9 mM; H-Asp-pNA / KIS [mM] (Lb-PepA): 6.66 mM

Question: For “Glutamyl (aspartyl)-specific aminopeptidase A (PepA) from Lactococcus lactis ssp. lactis DSM 20481 (from UniProt Q48677 1-355) (enzyme)”, which stoichiometry N [3] is on record?
Answer: The stoichiometry N was 12.

Question: With N[C@@H](CCC(=O)O)C(=O)Nc1ccc([N+](=O)[O-])cc1 [H-Glu-pNA] as the molecule, how does the “H-Glu-pNA / KIS [mM]” value (Lc-PepA [4]) read?
Answer: The value was 3.61 mM.

Question: With “Glutamyl (aspartyl)-specific aminopeptidase A (PepA) from Lactobacillus delbrueckii ssp. lactis DSM 20072 (enzyme)” as the molecule, how does the stoichiometry N [5] read?
Answer: Its stoichiometry N is 12.

Question: For N[C@@H](CCC(=O)O)C(=O)O [L-Glu], which activity at 10000 µM (Lc-PepA [1]) is on record?
Answer: The activity at 10000 µM was 82.3%.

B1: Lc-PepA (Lactococcus lactis subsp. lactis Il1403) (protein)
chain: T1 sequence (Q9CIH3 1-355)
notes: full length (355 aa, 1068 bp gene), C-terminal His6-tag kept, pET20b(+), E. coli BL21(DE3), Ni-NTA purified
Question: For B1, which Km (purified protein [6]) is on record?
Answer: The Km was 190 µM.

Question: And the Km (purified protein [7])?
Answer: Its Km is 340 µM.

B2: Lb-PepA (Lactobacillus delbrueckii subsp. lactis DSM 20072) (protein)
chain: T2 sequence (F0HXE4 1-361)
notes: full length (361 aa, 1086 bp gene), C-terminal His6-tag kept, pET20b(+), E. coli BL21(DE3), Ni-NTA purified
Question: What does the source list for B2?
Answer: Km (purified protein [8]): 25200 µM; Km (purified protein [9]): 1210 µM
